Values quoted from earlier work in paper PMC7768908 (Biochemistry, 2020).

How the values were obtained:
MT1-MMP = settings: by binding the cytoplasmic tail of MT1-MMP; ref [13]
[1] = tested on: cytoplasmic tail of MT1-MMP; settings: ref [13]

B1: ADI1 gene product: ADI1 gene encoding HsARD; human acireductone dioxygenase (protein, UniProt Q9BV57 1-179, looked up)
Acireductone dioxygenase: MVQAWYMDDAPGDPRQPHRPDPGRPVGLEQLRRLGVLYWKLDADKYENDPELEKIRRERNYSWMDIITICKDKLPNYEEKIKMFYEEHLHLDDEIRYILDGSGYFDVRDKEDQWIRIFMEKGDMVTLPAGIYHRFTVDEKNYTKAMRLFVGEPVWTAYNRPADHFEARGQYVKFLAQTA
- effect on MT1-MMP protease activity (MT1-MMP): suppressing protease activity
- binding to the cytoplasmic tail of MT1-MMP [1]: binds to the cytoplasmic tail of MT1-MMP
